In US20210079087A1 (REMD BIOTHERAPEUTICS, published 2021):

T1: murine IL-17A (murine, UniProt Q62386 26-158, limits assumed)
T1 construct: Antigen of the murine IL-17A crossreactivity ELISA; construct not described; also called mouse IL-17A
T1 sequence (looked up): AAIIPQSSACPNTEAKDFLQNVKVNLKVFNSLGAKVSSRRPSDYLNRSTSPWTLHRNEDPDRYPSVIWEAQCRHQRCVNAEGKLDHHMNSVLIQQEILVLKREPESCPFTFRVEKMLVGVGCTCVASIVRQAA


Key:
[1] = molecular target: T2, human IL-17A (human, UniProt Q16552 24-155); experiment: cell-based or functional assay
[2] = molecular target: T2, human IL-17A; experiment: cell-based or functional assay; remark: listed apart in the source
[3] = molecular target: T2, human IL-17A; experiment: IL-17A/IL-17R blocking ELISA
[4] = molecular target: T3, cyno primate IL-17A (cyno primate, UniProt A0A2K5TTB0 24-155); experiment: ELISA, binding to cyno IL-17A
T3 construct: Antigen of the primate crossreactivity ELISA; construct not described; also called Cy IL-17

[5] = molecular target: T2, human IL-17A; experiment: ELISA, binding to human IL-17A
[6] = molecular target: T1, murine IL-17A; experiment: murine IL-17A crossreactivity ELISA
[7] = molecular target: T2, human IL-17A; experiment: SPR, Biacore 8k; antibody amine-coupled to the chip, IL-17A as analyte
Protocol: (§1) The recombinant IgGs secreted to the medium and were purified using protein A affinity chromatography. […] Antibodies were immobilized on the sensor chip through amine coupling method. […] The data of dissociation (kd) and association (ka) rate constants were obtained using Biacore 8k evaluation software. The equilibrium dissociation constants (KD) were calculated from the ratio of kd over ka.

[8] = molecular target: T2, human IL-17A; experiment: SPR, Biacore T200; antibody amine-coupled to the chip, IL-17A as analyte
Protocol: The data of dissociation (kd) and association (kₐ) rate constants were obtained using Biacore T200 evaluation software. The equilibrium dissociation constants (KD) were calculated from the ratio of kd over kₐ.

[9] = molecular target: T2, human IL-17A; experiment: SPR, Biacore 8k; antibody amine-coupled to the chip, IL-17A as analyte (second, unlabelled row)
Protocol: as §1

[10] = molecular target: T2, human IL-17A; experiment: SPR, Biacore 8k; antibody amine-coupled to the chip, IL-17A as analyte; first of two Chimeric Ab rows (ka 1.94E+06)
Protocol: as §1

[11] = molecular target: T2, human IL-17A; experiment: SPR, Biacore 8k; antibody amine-coupled to the chip, IL-17A as analyte (second, unlabelled row); second, unlabelled row under Chimeric Ab
Protocol: as §1

T3 sequence (A0A2K5TTB0 entry or part of it): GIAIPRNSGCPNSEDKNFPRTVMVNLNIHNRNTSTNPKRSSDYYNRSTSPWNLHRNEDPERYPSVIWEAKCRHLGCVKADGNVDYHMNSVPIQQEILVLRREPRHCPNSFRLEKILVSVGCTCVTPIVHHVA
T2 sequence (Q16552 24-155 limits assumed): as the sequence (A0A2K5TTB0 entry or part of it) above, with A3T, S8P, S34N, V77I, K78N, R104P counted along it

Binder	IC50 (nM), IL6 production by TNFα-primed NIH3T3 cells stimulated with human IL-17A [1] [nM]	IC50 (nM), NIH3T3 in vitro functional assay described in Example 1 (IL-6 production) [2] [nM]	IC50 [3] [nM]	EC50 [4] [nM]	EC50 [5] [nM]	binding result [6]	Kd [7] [nM]	koff [7] [s⁻¹]	kon [7] [M⁻¹ s⁻¹]	other results
23A4D8 (antibody, mouse IgG2a, V domains shown, also called Murine 23A4D8; parental) VH: EVQLQQSGPELVKPGASVKISCKASGFTFTDYYMNWMKQSHGKSLEWIGDINPKNGGTIFNQNFRGKATLTVDKSSSTAYMELRSLTSEDSAVYYCARSILTGPFYFDYWGQGTTLTVSS VL: DIVLTQSPASLAVSLGQRAIISCKASQSVSFAGTGLMHWYQQKSGQQPKLLISRASNLEAGVPTRFSGSGSRTDFTLNIHPVEEDDAATYYCQQTMEYPTFGGGTKLEIK	0.581	0.703	2.07	0.004	0.08	no binding	0.00489	1.22e-05	2.5e+06	
chimeric IgG4 (murine-human chimeric antibody derived from murine antibody A4 and human IgG4) (antibody, V domains shown, also called Chimeric Ab) VH: EVQLQQSGPELVKPGASVKISCKASGFTFTDYYMNWMKQSHGKSLEWIGDINPKNGGTIFNQNFRGKATLTVDKSSSTAYMELRSLTSEDSAVYYCARSILTGPFYFDYWGQGTTLTVSS VL: DIVLTQSPASLAVSLGQRAIISCKASQSVSFAGTGLMHWYQQKSGQQPKLLISRASNLEAGVPTRFSGSGSRTDFTLNIHPVEEDDAATYYCQQTMEYPTFGGGTKLEIKR							0.00515		1.94e+06	Kd [8]: ≤ 0.00493 nM; koff [8]: ≤ 1e-05 s⁻¹; kon [8]: 2.03e+06 M⁻¹ s⁻¹; Kd [9]: 0.00439 nM; koff [9]: 1e-05 s⁻¹; koff [10]: ≤ 1e-05 s⁻¹; kon [11]: 2.28e+06 M⁻¹ s⁻¹
REMD 155.1 (antibody, human IgG4 S228P, kappa, V domains shown, Humanized antibody derived from 23A4D8; also called IgG 2 (H1/L2); H1 + L2) VH: QVQLVQSGAEVKKPGASVKVSCKASGFTFTDYYMNWVRQAPGQGLEWMGDINPKNGGTIFNQNFRGRVTMTRDTSISTAYMELSRLRSDDTAVYYCARSILTGPFYFDYWGQGTLVTVSS VL: DIVMTQSPDSLAVSLGERATINCKASQSVSFAGTGLMHWYQQKPGQQPKLLIYRASNLEAGVPDRFSGSGSGTDFTLTISSLQAEDVAVYYCQQTMEYPTFGGGTKLEIKR		0.995					≤ 0.00361	≤ 1e-05	2.77e+06	
REMD 155 (antibody, human IgG4 S228P, kappa, V domains shown, Humanized antibody derived from 23A4D8; also called IgG 1 (H1/L1); H1 + L1) VH: QVQLVQSGAEVKKPGASVKVSCKASGFTFTDYYMNWVRQAPGQGLEWMGDINPKNGGTIFNQNFRGRVTMTRDTSISTAYMELSRLRSDDTAVYYCARSILTGPFYFDYWGQGTLVTVSS VL: DIVMTQSPDSLAVSLGERATINCKASQSVSFAGTGLMHWYQQKPGQPPKLLIYRASNLEAGVPDRFSGSGSGTDFTLTISSLQAEDVAVYYCQQTMEYPTFGGGTKLEIKR		0.88					0.00552	1.35e-05	2.45e+06	
REMD 155.2 (antibody, human IgG4 S228P, kappa, V domains shown, Humanized antibody derived from 23A4D8; also called IgG 4 (H1/L4); H1 + L4) VH: QVQLVQSGAEVKKPGASVKVSCKASGFTFTDYYMNWVRQAPGQGLEWMGDINPKNGGTIFNQNFRGRVTMTRDTSISTAYMELSRLRSDDTAVYYCARSILTGPFYFDYWGQGTLVTVSS VL: DIVLTQSPDSLAVSLGERATINCKASQSVSFAGTGLMHWYQQKPGQQPKLLIYRASNLEAGVPDRFSGSGSGTDFTLTISSVQAEDVAVYYCQQTMEYPTFGGGTKLEIKR		0.975					≤ 0.00346	≤ 1e-05	2.89e+06	
8A5G4 (antibody, V domains shown, amino acids 1-19 are stated as the leader; also called A2) VH: QVELKESGPGLVAPSQSLSITCTVSGFSLTSYGVYWVRQPPGKGLEWLVVIWSDGTTTYNSALKSRLSISKDNSKSQVFLKMNSLQTDDTAMYYCARQGDNYSYAVDYWGQGTAVTVSS VL: DVVMIQIPLSLPVSLGDQASISCRSSQSLVHSNGNTYLHWYLQKPGQSPKLLIYKVFNRFSGVPDRFSGSGSGTDFTLKISRVEAEDLGVYFCSQSTHAPLTFGAGTKLELK	0.47		1.65	0.008	0.1	no binding				
4H11C7 (antibody, mouse IgG1, V domains shown, amino acids 1-19 are stated as the leader; also called A1) VH: QVTLKESGPGILQPSQTLSLTCSFSGFSLNTFGMGVDWIRQPSGKGLEWLAHIWWDDDKYYNPALESRLTISKDASKNQVFLKIANVDTADTATYYCSRRELGPYFFDYWGQGTTLTVSS VL: GVLMTQTPLSLPVSLGDQASISCRSSQSIVHSNGNTYLEWYLQKPGQSPKLLIYKVSNRFSGVPDRFSGSGSGTDFTLKINRVEAEDLGVYYCFQGSHFPYTFGGGTKLEID	0.953		2.44	0.016	0.19	no binding				
22E2G4 (antibody, mouse IgG1, V domains shown, amino acids 1-19 are stated as the leader; also called A3) VH: QVQLQQPGAELVMPGTSVRLSCKASGYTFTSYWMHWVKQRPGQGLEWIGEIDPSDTYTNYNPKFKGKATLTVDKSSSTAYMQFTSLTSEDSAVYYCARSGIYYDYYEDYWGQGTTLTVSS VL: DVVMTQTPLSLPVSLGDQASISCRSSQILLHSNGNTYLHWYLQKPGQSPKLLIYKVSNRFSGVPDRFSGSGSGTDFTLKISRVEAEDLGVYFCSQSVHVPTFGGGTKLEIK	0.534		3.04	0.013	0.15	no binding				
24F11E4 (antibody, mouse IgG1, V domains shown, amino acids 1-19 are stated as the leader; also called A5) VH: QVQLQQPGAELVMPGASVRLSCKASGYTFTNYWIHWVKQRPGQGLEWIGEIDPSDTFTNYSPKFKGKATLTVDKSSSTAYMQLTGLTSEDSAVYFCARSGIYYDYYEDYWGQGTTLTVSS VL: DVVMTQTPLSLPVSLGDQVSISCRSSQILLHSNGNTYLHWYLQKPGQSPKLLIYKVSNRFSGVPDRFSGSGSGTDFTLKISRVEADDLGVYFCSQSVHVPTFGGGTKLEIK	0.138		2.15	0.01	0.16	no binding				
26G11B11 (antibody, mouse IgG1, V domains shown, amino acids 1-19 are stated as the leader; also called A6) VH: QVQLQQPGAELVMPGASVKLSCKAAGYTFTSYWMHWVKQRPGQGLEWIGEIDPSDSYTNYNQKFKGKATLTVDKSSSTAYMQLSSLTSEDSAVYYCARSGIYYDYYEDYWGQGTTLTVSS VL: DVVMTQTPLSLPVSLGDQASISCRSSQSLVHSNGNTYLHWYLQKPGQSPKLLIYKVSNRFSGVPDRFSGSGSGTDFTLKISRVEAEDLGVYFCSQSIHVPTFGGGTKLEIK	0.544		2.19	0.012	0.12	no binding				
